Biological target: extracellular domain of human DPP4 (residues 39-766), wild type (human), P27487
Test: nonreducing SDS-PAGE
Details: remark: other sources report otherwise

B1: extracellular domain of human DPP4 (residues 39-766), wild type, P27487 39-766 (domain or fragment)
chain: SRKTYTLTDYLKNTYRLKLYSLRWISDHEYLYKQENNILVFNAEYGNSSVFLENSTFDEFGHSINDYSISPDGQFILLEYNYVKQWRHSYTASYDIYDLNKRQLITEERIPNNTQWVTWSPVGHKLAYVWNNDIYVKIEPNLPSYRITWTGKEDIIYNGITDWVYEEEVFSAYSALWWSPNGTFLAYAQFNDTEVPLIEYSFYSDESLQYPKTVRVPYPKAGAVNPTVKFFVVNTDSLSSVTNATSIQITAPASMLIGDHYLCDVTWATQERISLQWLRRIQNYSVMDICDYDESSGRWNCLVARQHIEMSTTGWVGRFRPSEPHFTLDGNSFYKIISNEEGYRHICYFQIDKKDCTFITKGTWEVIGIEALTSDYLYYISNEYKGMPGGRNLYKIQLSDYTKVTCLSCELNPERCQYYSVSFSKEAKYYQLRCSGPGLPLYTLHSSVNDKGLRVLEDNSALDKMLQNVQMPSKKLDFIILNETKFWYQMILPPHFDKSKKYPLLLDVYAGPCSQKADTVFRLNWATYLASTENIIVASFDGRGSGYQGDKIMHAINRRLGTFEVEDQIEAARQFSKMGFVDNKRIAIWGWSYGGYVTSMVLGSGSGVFKCGIAVAPVSRWEYYDSVYTERYMGLPTPEDNLDHYRNSTVMSRAENFKQVEYLLIHGTADDNVHFQQSAQISKALVDVGVDFQAMWYTDEDHGIASSTAHQHIYTHMSHFIKQCFSLP
modifications: here or on the partner: glycosylated (sites not given); glycosylated (sites not given)
dimer percent: 40.8%
